Data: patent US20050171016A1

Target: CD36 receptor on human dermal microvascular endothelial cells (HDMEC) (human) (UniProt P16671)
Experiment: cell-based or functional assay

Chain of UniProt P16671 (P16671 2-472): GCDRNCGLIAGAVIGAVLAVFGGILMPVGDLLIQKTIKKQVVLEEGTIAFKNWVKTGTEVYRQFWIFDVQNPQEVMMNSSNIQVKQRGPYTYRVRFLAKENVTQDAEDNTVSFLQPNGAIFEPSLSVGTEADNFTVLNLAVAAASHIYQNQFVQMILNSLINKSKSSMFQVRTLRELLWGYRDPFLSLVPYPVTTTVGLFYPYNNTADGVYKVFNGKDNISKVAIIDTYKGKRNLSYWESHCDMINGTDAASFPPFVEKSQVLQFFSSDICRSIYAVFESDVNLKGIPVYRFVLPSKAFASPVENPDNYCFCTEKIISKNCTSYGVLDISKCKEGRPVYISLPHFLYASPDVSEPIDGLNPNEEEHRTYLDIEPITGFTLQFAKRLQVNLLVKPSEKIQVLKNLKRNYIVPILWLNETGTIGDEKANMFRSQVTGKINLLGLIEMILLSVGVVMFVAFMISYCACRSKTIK

| inhibition of HDMEC migration (Transwell, 10 ug/ml TSP-1) [%] | inhibition of HDMEC migration in the presence of 10 ug/ml anti-CD36 antibody (clone FA6-152) [%] | inhibition of HDMEC migration (Transwell, TSP-2 conditioned medium) [%] | Substance |
| --- | --- | --- | --- |
| 54 | 20.8 |  | human thrombospondin-1 (TSP-1) (from UniProt P07996 19-1170) |
|  | 36.1 | 54.2 | mouse thrombospondin-2 (TSP-2) (from UniProt Q03350 19-1172) |
